IntAct's records for PubMed 18342605

B1: RNA end formation protein 2 (Saccharomyces cerevisiae), P42073 (parent)
chain: MSAPVPQLVNISHALQASTIQQIRLDMVDFNKDCKLSSIQLARIDKYIDSLQAALNQFTKDNLHIERKEKNVTEADIQLYSGLKSMYLDYLNQLIKLKHEKQHHSTPPIANDVSLDFFVNQLPKFSPEERKNYIDNLILNKNSHNRLSKMDGLVDAVINLCVLDTSVAENVRSYMKLLDTLGFQKGSNSTGTKANLKKKLASSKAKIKDSEKEKEKEKDKSKVKMKTKLKPSPLLNNDDKNSSPSPTASTSSMKKLKSGLFNKNEAKSTESLPTSSKKKLSFSKYLNKDDADMTKLGTKRSIDVDFKVNPEASTVASNIISSSTSGSSTTTVATPASSEEPLKKKTKISVQDSNVQSILRNGKPKKARISSIKFLDDSQLIKVYGDDLPNQGLQVSPTQLKKILKPFKEGEPKEIILFEDMSIKLKPLDLMFLKNTNSDDYMDISETKGGPIHCETRTPLIYRKNFNHFNPDLNKRPPREPIEFDLNGNTNSTPTIAKAFGKNSLLLRKDRGGLPYKHVPIVKRNKYPPRPVH
B2: Serine/threonine-protein phosphatase PP1-2 (Saccharomyces cerevisiae), P32598 (parent)
chain: MDSQPVDVDNIIDRLLEVRGSKPGQQVDLEENEIRYLCSKARSIFIKQPILLELEAPIKICGDIHGQYYDLLRLFEYGGFPPESNYLFLGDYVDRGKQSLETICLLLAYKIKYPENFFILRGNHECASINRIYGFYDECKRRYNIKLWKTFTDCFNCLPIAAIIDEKIFCMHGGLSPDLNSMEQIRRVMRPTDIPDVGLLCDLLWSDPDKDIVGWSENDRGVSFTFGPDVVNRFLQKQDMELICRAHQVVEDGYEFFSKRQLVTLFSAPNYCGEFDNAGAMMSVDESLLCSFQILKPAQKSLPRQAGGRKKK
partner: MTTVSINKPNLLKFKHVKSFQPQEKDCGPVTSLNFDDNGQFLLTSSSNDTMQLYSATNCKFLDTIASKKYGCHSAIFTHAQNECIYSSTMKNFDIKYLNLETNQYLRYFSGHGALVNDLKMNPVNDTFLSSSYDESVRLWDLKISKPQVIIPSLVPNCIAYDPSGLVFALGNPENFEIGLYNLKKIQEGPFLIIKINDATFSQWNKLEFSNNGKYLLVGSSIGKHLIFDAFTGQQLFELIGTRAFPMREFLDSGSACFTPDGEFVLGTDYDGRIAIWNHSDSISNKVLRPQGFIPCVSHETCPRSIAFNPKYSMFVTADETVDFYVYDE
B3: Serine/threonine-protein phosphatase PP1-2 (Saccharomyces cerevisiae), P32598 (parent)
chain: B2 chain
B4: Serine/threonine-protein phosphatase PP1-2 (Saccharomyces cerevisiae), P32598 (parent)
chain: B2 chain
partner: B1 chain

Variants of: B1
Conditions: with pp12_yeast GLC7, P32598

Variant	effect of a mutation on the interaction
F374A	disrupting interaction strength

Variants of: B2
Conditions: with swd2_yeast SWD2, P36104

Variant	effect of a mutation on the interaction
F292A	decreasing interaction strength
F256A	disrupting interaction strength
F256A;F292A	disrupting interaction strength

Variants of: B3
Conditions: with sen1_yeast SEN1, Q00416
Sequence of sen1_yeast SEN1, Q00416 (Q00416 whole entry): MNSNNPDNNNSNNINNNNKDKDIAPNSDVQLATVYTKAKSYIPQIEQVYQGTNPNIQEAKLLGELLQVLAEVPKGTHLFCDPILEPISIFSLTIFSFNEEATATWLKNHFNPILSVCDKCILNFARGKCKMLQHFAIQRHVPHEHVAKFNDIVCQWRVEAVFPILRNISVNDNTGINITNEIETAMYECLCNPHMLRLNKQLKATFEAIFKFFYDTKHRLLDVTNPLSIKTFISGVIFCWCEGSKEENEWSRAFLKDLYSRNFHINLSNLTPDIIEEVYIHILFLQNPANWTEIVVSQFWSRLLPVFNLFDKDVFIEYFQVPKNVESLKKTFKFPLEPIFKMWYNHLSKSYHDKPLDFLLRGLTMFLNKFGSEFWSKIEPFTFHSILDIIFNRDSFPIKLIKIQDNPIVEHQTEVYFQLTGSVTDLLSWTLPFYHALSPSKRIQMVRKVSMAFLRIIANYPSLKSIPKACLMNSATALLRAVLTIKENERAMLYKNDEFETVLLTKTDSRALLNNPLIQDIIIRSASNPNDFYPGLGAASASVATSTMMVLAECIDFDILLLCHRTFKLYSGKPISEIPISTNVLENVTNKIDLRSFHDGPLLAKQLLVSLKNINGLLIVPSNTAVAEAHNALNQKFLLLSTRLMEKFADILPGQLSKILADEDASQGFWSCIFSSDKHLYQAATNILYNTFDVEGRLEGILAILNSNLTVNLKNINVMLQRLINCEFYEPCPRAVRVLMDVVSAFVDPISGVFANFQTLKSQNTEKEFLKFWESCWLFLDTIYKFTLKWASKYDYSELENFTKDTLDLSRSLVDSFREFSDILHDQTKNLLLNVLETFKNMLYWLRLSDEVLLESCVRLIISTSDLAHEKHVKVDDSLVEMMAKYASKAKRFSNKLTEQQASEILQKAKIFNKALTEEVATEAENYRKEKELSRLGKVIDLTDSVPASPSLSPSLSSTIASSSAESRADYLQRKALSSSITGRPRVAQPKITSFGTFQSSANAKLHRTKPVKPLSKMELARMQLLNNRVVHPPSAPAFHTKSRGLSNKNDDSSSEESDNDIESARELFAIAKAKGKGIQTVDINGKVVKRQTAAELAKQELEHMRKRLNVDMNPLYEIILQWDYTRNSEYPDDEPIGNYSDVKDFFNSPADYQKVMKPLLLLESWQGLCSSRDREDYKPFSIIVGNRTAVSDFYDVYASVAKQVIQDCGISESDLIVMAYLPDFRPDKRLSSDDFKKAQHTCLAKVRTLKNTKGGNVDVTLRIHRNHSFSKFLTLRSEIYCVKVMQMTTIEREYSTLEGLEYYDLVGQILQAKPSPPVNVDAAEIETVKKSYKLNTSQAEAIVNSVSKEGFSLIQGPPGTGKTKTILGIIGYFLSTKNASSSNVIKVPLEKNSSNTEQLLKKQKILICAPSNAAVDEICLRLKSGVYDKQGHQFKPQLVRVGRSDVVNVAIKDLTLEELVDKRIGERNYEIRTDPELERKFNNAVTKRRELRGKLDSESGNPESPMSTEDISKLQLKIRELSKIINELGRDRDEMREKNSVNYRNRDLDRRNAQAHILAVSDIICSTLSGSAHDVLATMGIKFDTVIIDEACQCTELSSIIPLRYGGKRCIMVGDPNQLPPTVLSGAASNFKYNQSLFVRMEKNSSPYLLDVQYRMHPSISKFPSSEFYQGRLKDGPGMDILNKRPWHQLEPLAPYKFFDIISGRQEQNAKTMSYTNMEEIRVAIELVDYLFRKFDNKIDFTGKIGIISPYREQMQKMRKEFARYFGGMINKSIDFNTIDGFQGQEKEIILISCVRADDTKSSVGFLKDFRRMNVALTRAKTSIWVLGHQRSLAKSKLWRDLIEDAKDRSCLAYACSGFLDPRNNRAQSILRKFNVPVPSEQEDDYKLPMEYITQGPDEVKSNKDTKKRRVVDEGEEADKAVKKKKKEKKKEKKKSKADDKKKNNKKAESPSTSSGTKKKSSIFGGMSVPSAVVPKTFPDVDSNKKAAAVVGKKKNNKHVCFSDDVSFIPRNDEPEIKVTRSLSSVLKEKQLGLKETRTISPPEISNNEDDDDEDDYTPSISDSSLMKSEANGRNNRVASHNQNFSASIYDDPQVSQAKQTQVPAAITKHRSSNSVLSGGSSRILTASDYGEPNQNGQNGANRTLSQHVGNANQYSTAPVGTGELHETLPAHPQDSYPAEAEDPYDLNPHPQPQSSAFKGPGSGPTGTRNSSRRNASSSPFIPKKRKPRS

Variant	effect of a mutation on the interaction
F256A;F292A	disrupting interaction strength
F256A	disrupting interaction strength
F292A	decreasing interaction strength

Variants of: B4
Conditions: with ref2_yeast REF2, P42073

Variant	effect of a mutation on the interaction
F256A;F292A	disrupting interaction strength
F292A	decreasing interaction strength
F256A	disrupting interaction strength
